Laboratory results reported in the DeepSol protein solubility set.

Test: soluble on expression in E. coli; label from the status in PepcDB or PDB records

Sequence	soluble on expression in E. coli
MKRVVVTGIGMINALGLDKESSFKAICNGESGVNKITLFDATDFPVQIAAEVKNFDPLEVVDGKEVKKIDRFIQLGIKAAREAMQDAGFSEELDKEEFGIVSASGIGGLPNIEKNSIICSERGPRKISPFFIPSALVNMLGGLISIEHGLKGPNISCVTACAAGTHAIGEAYKSIALGNAKKMLVIGAEAAICPVGIGGFASMKALSTRNEDPQHASRPFDKERDGFVMGEGAGALVFEEYEEAKKRGATIYAELIGFGESADAHHITSPTLDGPLRAMKKALNMAGNPKVDYINAHGTSTPVNDKNETAAIKELFGNNIPLISSTKGQTGHCLGAAGAIEAVVSVMVLRDGVVPPTINQLVKDDECDLDYIPNISRKVDLKVVMSNSFGFGGTNGCVVFKKVD	soluble
MARNSTLTNLFLSTKRNMGRLISHIVKADDIDDIVQETFIKTYEADLKQEIKYVRSYMLKTAKNLALNHVARWDNKYNDSLEDFSQPPVQLTSGKVEDDYESKEQFLFFCRATDQLSGSVRKCFILKKVYGLSQKEIASYLNLSESTVEKHIAQGLLKSTKYIKRMNHGHSVKGAKQNHQVHSLQVKKTVLK	not soluble
MAKAQLSQNGEARAWQRMLSGRRLDLLNPSPFDIEIEDIAHGLARVARWNGQTQGEYAYSVAQHSLLVEQIFQKLFPQSQNNECLCALLHDAPEYVIGDIISPFKAVIGKQYELIEKRIQDAIHMRFSLPVAPSQKLLKKIKQADRIAAFHESIILAGFNTEEALRYFGHPNNISPEGLNLQPCSTTKIENAFLKRFHDLDVERLH	not soluble
MSKLKIAVSDSCPDCFTTQRECIYINESRNIDVAAIVLSLNDVTCGKLDEIDATGYGIPVFIATENQERVPAEYLPRISGVFENCESRREFYGRQLETAASHYETQLRPPFFRALVDYVNQGNSAFDCPGHQGGEFFRRHPAGNQFVEYFGEALFRADLCNADVAMGDLLIHEGAPCIAQQHAAKVFNADKTYFVLNGTSSSNKVVLNALLTPGDLVLFDRNNHKSNHHGALLQAGATPVYLETARNPYGFIGGIDAHCFEESYLRELIAEVAPQRAKEARPFRLAVIQLGTYDGTIYNARQVVDKIGHLCDYILFDSAWVGYEQFIPMMADCSPLLLDLNENDPGILVTQSVHKQQAGFSQTSQIHKKDSHIKGQQRYVPHKRMNNAFMMHASTSPFYPLFAALNINAKMHEGVSGRNMWMDCVVNGINARKLILDNCQHIRPFVPELVDGKPWQSYETAQIAVDLRFFQFVPGEHWHSFEGYAENQYFVDPCKLLLTTPGIDARNGEYEAFGVPATILANFLRENGVVPEKCDLNSILFLLTPAEDMAKLQQLVALLVRFEKLLESDAPLAEVLPSIYKQHEERYAGYTLRQLCQEMHDLYARHNVKQLQKEMFRKEHFPRVSMNPQEANYAYLRGEVELVRLPDAEGRIAAEGALPYPPGVLCVVPGEIWGGAVLRYFSALEEGINLLPGFAPELQGVYIEEHDGRKQVWCYVIKPRDAQSTLLKGEKL	soluble
MDSLKCQVDNTVASHNVTIDKSSQDDNHIDNRRYYINIGNTKDSEEVARLQKLILTQNEAESKRTMELLALLNLKNNPEEQKKASAVGPAVDVAQNLRHLSASAGGTRRLRSCHGTYLRAYDKGLKVDMKTGAPGTWENWWVEDRKGKVVFKAIHSPGIFLSAQGNNQLTLDYHVNASEFWTPKKNDNGSWSFQSANGTWLSAHKDGRACLQPHRQAWEEFWLEWW	not soluble
MPQEIPPAVKYKIYPEGAEGIDTVWERPGFKKGEIEARVKDVVILRGEPVPNSYKMLVEATFELPKKDKITQLGLVNRHGLVTRVHYASPFKGAILPGDIILQVNGTTVSFDEKQLTEHVDETTGGASLQSNVKTVKRKPTTTPKTEPVRAPHSLYPDFKVVVGKILNSKSETKITVLVARLKNRMSTSKIPNGILATQDHTIDLAILYQFKYLQLGLNVQQVDRKVVVNYTIPDSVSHCSLNIGEAIIAVDDKPINTLADNRQRFREGFEANGWIRLLVEYPNTDPIKNMVRGQLANVMRTAERPQYLLCGDVRKYFVEGIEALKNGKALAPILKEEEGPGEVGKKKSDAKVTKKDPAVGFNNTTEEFFIPAEWNSKLFVWLPPLKTKVTESASSNMPVKK	not soluble
MSLAEFIYTMKKVRKAHGDKVILDDVTLSFYPGAKIGVVGPNGAGKSSVLRIMAGLDKPNNGDAFLATGATVGILQQEPPLNEDKTVRGNVEEGMGDIKIKLDRFNEVAELMATDYTDELMEEMGRLQEELDHADAWDLDAQLEQAMDALRCPPADEPVTNLSGGERRRVALCKLLLSKPDLLLLDEPTNHLDAESVQWLEQHLASYPGAILAVTHDRYFLDNVAEWILELDRGRAYPYEGNYSTYLEKKAERLAVQGRKDAKLQKRLTEELAWVRSGAKARQAKSKARLQRYEEMAAEAEKTRKLDFEEIQIPVGPRLGNVVVEVDHLDKGYDGRALIKDLSFSLPRNGIVGVIGPNGVGKTTLFKTIVGLETPDSGSVKVGETVKLSYVDQARAGIDPRKTVWEVVSDGLDYIQVGQTEVPSRAYVSAFGFKGPDQQKPAGVLSGGERNRLNLALTLKQGGNLILLDEPTNDLDVETLGSLENALLNFPGCAVVISHDRWFLDRTCTHILAWEGDDDNEGHHHHHH	not soluble
MTWFIDRRLNGKNKSTVNRQRFLRRYKAQIKQSISEAINKRSVTDVDSGESVSIPTDDISEPMFHQGRGGLRHRVHPGNDHFIQNDRIERPQGGGGGGSGSGQGQASQDGEGQDEFVFQISKDEYLDLLFEDLALPNLKKNQHRQLNEYKTHRAGFTSNGVPANISVVRSLQNSLARRTAMTAGKRRELHALETELETISHSEPAQLLEEERLRREIAELRAKIERVPFIDTFDLRYKNYEKRPEPSSQAVMFCLMDVSGSMDQATKDMAKRFYILLYLFLSRTYKNVEVVYIRHHTQAKEVDEHEFFYSQETGGTIVSSALKLMDEVVKERYDPGQWNIYAAQASDGDNWADDSPLCHEILAKKLLPVVRYYSYIEITRRAHQTLWREYEHLQATFDNFAMQHIRDQEDIYPVFRELFQKQSANQSALEHHHHHH	soluble
MHGVEFAPLERQHGSQVLALLRGTLLVPLPRLHQRLEEAYERDARLGLAQVALCRLAGNAEKVVGVLLARVATRRTCCAQVYIDAVAVDAVFQGQGIGSRLLLRVLTPCLPDGLEVREVFLHTPLQATELVAFYRSCGFESDDEVIDNYYPRRWMPQAQALVLRWRPPTAAQHQHEERKGPQDADVS	not soluble
MGSDKIHHHHHHMSTQTSIEWTEMTWNPIVGCTKVSPGCKHCYAENMAHRLQAMGTPGYENGFKLSLRPEKLREPLQRKKPTIYFVNSMSDLFHEKVPDHYIDQVFEVIREATQHTFQILTKRAERLADYFSKRTPPTNAWLGVSVEDKAYGVPRIDCLRRVNATIRFLSAEPLLEDLGEIDLTDIHWVIVGGESGNKARPMQQEWVDNIHRQCDVSGSAFFFKQWGGWGADGVKRSKKANGRLLNGQTWDEIPLLNLA	not soluble
MAHHHHHHMGTLEAQTQGPGSMRLTVVGANGRMGRELITAIQRRKDVELCAVLVRKGSSFVDKDASILIGSDFLGVRITDDPESAFSNTEGILDFSQPQASVLYANYAAQKSLIHIIGTTGFSKTEEAQIADFAKYTTIVKSGNMSLGVNLLANLVKRAAKALDDDFDIEIYEMHHANKVDSPSGTALLLGQAAAEGRNIMLKNVSVNGRSGHTGKREKGTIGFACSRGGTVIGDHSITFAGENERIVLSHIAQERSIFANGALKAALWAKNHENGLYSMLDVLGLNE	soluble
MENQDYTVRLTVQASPQEVFKQINRVTAWWTKNLQGDSEKLNDVFTVNFPGMHVSTQKLIECIPDKKVTWMVTDSHLTFIQRKTEWTDTTIQFDISRNVKHTEVLFTHKGLNPAIECYGDCAKGWDYFIKGSLFKLLTEGTGTPELEHHHHHH	soluble
MGSDKIHHHHHHMQFEMHDHVKGKAMSYPVTSQPQCANTCYQTQLSDWHTGLTDCCNDMPVCLCGTFAPLCLACRISDDFGECCCAPYLPGGLHSLRTGMRERYHIQGSVGHDWAALTFCLPCALCQMARELKIRE	not soluble
MSLMIRAITIFVTNYSKISDYTEKLSKLNDNNIWSKRISLPPTPIDLSLSKLIELLPTTHSEIIFSLINLQEKDKRLREIKDILKSDKRIYVHVLVKTTDNLKDLAKLIISLEPEEASRFALLFNQDFLLTPYFPTSSANTVYDSFGISLLYVDEFKQGKINEALSKADTIGRQLEKKLNIKYLGIDASLSPWMESSVGEIVESRSKKMFDISNLSAVAEINREIFEGVWRNRVNPIGFSELMLPIAEDNLLRERVKEGSLTLKDLLLMSYVCVAGIDMVGIYSDLVTYENILKSVYYIQYTKRKPYGVRMIPTNGSPVLTKMFGEIPEVKVVEGHHHHHH	soluble
MIASIFGKITFVGKRKIIVEANCISYWFNVKENHSFEKNLEKPRQVFCQIIKRMVTNQILEEGFA	not soluble
MGSDKIHHHHHHMNEVIENVKEYYGKILHSTADLQSKACCCSPDSMPKEVKKALIFIADEVINRYYGCGSPLPPLLEGMTVLDLGCGSGRDVYVAAQLVGEHGRVIGVDMTQEQLDVAKKYEDEQRQRFGYAKSNVKFLSGYIEDLRAAGISDSSVDIVISNCVVNLSPDKEKVFAEIWRVLKPGGELYFSDVFADRRIPEYLAADPVLRGECIGGALYYEDFRRIMQRVGFTDFRYKSIRNIDLDNEAIIEKVGFANFTERTVRAFKLDDLEDICEDYGQIAVYNGSIASSPHFFDLDDHHRFFTGKPLLVCGNTAAMLAKTRFASAFRVIGNRSTHYGVFGVCGGKSETNCFDTGSSCGC	not soluble
MGSDKIHHHHHHMNIKDLKYFYHLSQLQSFTKVAEKFQISQPSVSYSVKRLEEQFNCDLIVKDPSHRTFALTQQGNILKRHLERILPEISSAQKEMNRSLAHYSTLGCPPIIINYLLSLLKETNQDLAFLKRIRSIRGGSVELLEQLLQGDLDLSLIGTIEPFYHDELVIKKILHRKLYLIVSKDHLLAKRKKAIAFADVLKENFILLDEHNIHLKAFDYLNQTHQNQAQIFFKSDDVTLIKQMVSHNMGVSLLTDISLTKQDHHLVKIPFKENNKLGFYVNYAYLKSSTLTPDIRHLVDLLDKIAQSF	not soluble
MPKESLLRELSALREQLEQQPPLNEEQRAELELLIRDIELKLANEDALNEGSLVDGVNLAVERFEVSHPTLAGTLRSIVQSLANMGI	not soluble
MSELQNPKPSSLSRDAFIATYADIYEHSPWVAEQAFNQDAGPELDQLDTLHARLSDILLNATHAQQLALINAHPDLAGKAAVKGELTQASTDEQAGAGIHLCTPDEFQRFTELNGAYKARFGFPFIMAVKGSDRHKILAAFEQRIHHSPEAEFACALAEINKIALFRLQALHASQAAAALEHHHHHH	soluble
SLKKWLVTIAALWLAGCSSGEINKNYYQLPVVQSGTQSTASQGNRLLWVEQVAVPDYLAGNGVVYQTSDVKYVIANNTLWASPLDQQLRNTLVANLSTQLPGWVVASQPLGSAQDTLNVTVTEFNGRYDGKVIVSGEWLLNHQGQLIKRPFRLEGMQTQDGYDEMVKVLASVWSQEAASIAQEIKRLP	soluble
SMRYTVSNLSMQTHAARFKTFFNWPSSVLVNPEQLASAGFYYVGNSDDVKCFCCDGGLRCWESGDDPWVQHAKWFPRCEYLIRIKGQEFIRQVQAS	soluble
